Data taken from US20030083469, “Allosteric control of nuclear hormone receptors” (The Salk Institute for Biological Studies, published 2003).

Molecular target: GAL4 DBD-RXRalpha LBD (Saccharomyces cerevisiae / Homo sapiens, UniProt P04386;P19793 P04386:1-147,P19793:203-462)
Assay: cell_activity; fold response to 100 nM LG69; 4 copies UASG TK-LUC, CV-1 cells
Conditions: tags: GAL4 DBD (1-147) N-terminal fusion

Chain of GAL4 DBD-RXRalpha LBD (P04386 1-147, chain 1 of 2): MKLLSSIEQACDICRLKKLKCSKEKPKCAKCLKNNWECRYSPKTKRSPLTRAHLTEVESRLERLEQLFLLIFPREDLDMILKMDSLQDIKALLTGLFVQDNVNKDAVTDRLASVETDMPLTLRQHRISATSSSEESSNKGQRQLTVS
Chain of GAL4 DBD-RXRalpha LBD (P19793 203-462, chain 2 of 2): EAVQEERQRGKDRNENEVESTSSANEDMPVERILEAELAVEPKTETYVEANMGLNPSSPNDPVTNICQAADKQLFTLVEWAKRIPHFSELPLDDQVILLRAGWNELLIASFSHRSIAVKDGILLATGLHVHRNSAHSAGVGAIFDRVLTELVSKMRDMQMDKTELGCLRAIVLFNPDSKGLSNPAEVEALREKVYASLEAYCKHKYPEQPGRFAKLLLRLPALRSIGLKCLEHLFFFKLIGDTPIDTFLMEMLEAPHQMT

B1: UASG x4 (dsDNA)
DNA 1: CGACGGAGTACTGTCCTCCGAGCT
DNA 2: AGCTCGGAGGACAGTACTCCGTCG
Q: For B1, which activity is on record?
A: Its activity is 69 fold.
